Test results published in US20150218281A1 (Ablynx, published 2015).

Tests used:
[1] = molecular target: T1, full length human OX40L expressed on CHO cells (human, UniProt P23510 1-183); test: cell-based or functional assay
T1 sequence: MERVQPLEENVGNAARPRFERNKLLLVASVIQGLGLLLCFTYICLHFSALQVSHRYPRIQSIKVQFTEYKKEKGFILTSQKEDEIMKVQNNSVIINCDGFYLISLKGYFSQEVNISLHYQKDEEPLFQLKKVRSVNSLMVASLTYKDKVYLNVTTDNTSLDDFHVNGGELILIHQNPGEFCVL

[2] = molecular target: T1, full length human OX40L expressed on …; test: competition FACS with hOX40/Fc on CHO-hOX40L
Procedure: The competition FACS assay was performed as described in example 2.

[3] = molecular target: T2, recombinant human OX40L (extracellular domain, R&D Systems) (human, UniProt P23510 51-183); test: SPR, after second injection of buffer HBS-EP+
T2 construct: also called hOX40L; rec. hOX40L
T2 sequence: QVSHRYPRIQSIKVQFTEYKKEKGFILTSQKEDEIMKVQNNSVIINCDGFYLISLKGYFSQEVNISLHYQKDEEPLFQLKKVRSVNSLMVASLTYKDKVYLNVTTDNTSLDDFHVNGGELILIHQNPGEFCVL
Procedure: (§1) In addition, it was investigated to what extend the 7 anti-OX40L Nanobodies have a different or identical or overlapping epitope. Standard conditions were as described above. […] 1300 RU. A dual injection was performed at 10 μl/min for 2 min, starting with 500 nM of the first Nanobody, followed by 500 nM of the second Nanobody. After 10 min dissociation, regeneration of the surface was performed by injection of 50 mM NaOH for 5-20 sec at 100 μl/min.

[4] = molecular target: T1, full length human OX40L expressed on …; test: FACS binding to CHO cells, anti-c-myc detection
Procedure: (§2) Transfection of CHO K1 with the respective expression plasmid DNA and selection of clones with high expression levels was performed as described in Example 1. Binding of the Nanobodies to the cell surface expressed OX40L was assessed by FACS analysis of cells as described below.
(§3) After washing bound Nanobodies were detected in FACSArray™ using mouse anti-c-myc and PE conjugated goat anti-mouse IgG.

[5] = molecular target: T3, cynomolgus OX40L expressed on CHO cells (cynomolgus monkey, UniProt P23510 1-183 (human entry)); test: FACS binding to CHO cells, anti-c-myc detection
T3 construct: also called cynoOX40L; CHO-cynoOX40L
T3 chain: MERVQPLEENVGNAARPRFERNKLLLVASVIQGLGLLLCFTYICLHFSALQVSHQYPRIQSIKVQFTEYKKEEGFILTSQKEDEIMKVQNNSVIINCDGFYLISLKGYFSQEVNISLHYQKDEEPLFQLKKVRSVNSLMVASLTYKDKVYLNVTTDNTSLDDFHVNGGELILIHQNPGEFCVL
Procedure: as §2, §3

[6] = molecular target: T2, recombinant human OX40L (extracellular …); test: SPR, second injection after competitor OX40L01B11
Procedure: as §1

[7] = molecular target: T2, recombinant human OX40L (extracellular …); test: SPR, second injection after competitor OX40L01E07
Procedure: as §1

[8] = molecular target: T2, recombinant human OX40L (extracellular …); test: SPR, second injection after competitor OX40L01E10
Procedure: as §1

[9] = molecular target: T2, recombinant human OX40L (extracellular …); test: SPR, second injection after competitor OX40L15B07
Procedure: as §1

[10] = molecular target: T2, recombinant human OX40L (extracellular …); test: SPR, second injection after competitor OX40L18E09
Procedure: as §1

[11] = molecular target: T2, recombinant human OX40L (extracellular …); test: SPR, second injection after competitor OX40L19A07
Procedure: as §1

[12] = molecular target: T2, recombinant human OX40L (extracellular …); test: SPR, second injection after competitor OX40L19D08
Procedure: as §1

[13] = molecular target: T4, biotinylated hOX40L (R&D Systems, biotinylated in house) (human, UniProt P23510 51-183, biotinylated with Sulfo-NHS-LC-Biotin, sites not stated); test: AlphaScreen, 31 pM biotinylated hOX40L + 80 pM OX40/Fc
T4 construct: same bought protein as m10, biotinylated; also called biotinylated OX40L
T4 sequence: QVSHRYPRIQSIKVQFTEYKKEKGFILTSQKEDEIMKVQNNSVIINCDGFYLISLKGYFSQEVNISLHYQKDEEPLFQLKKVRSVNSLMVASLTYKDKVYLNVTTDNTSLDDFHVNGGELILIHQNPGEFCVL
Procedure: (§4) Next, streptavidin donor beads were added and incubated for an additional 1 hour. Fluorescence was measured by reading plates on the EnVision Multilabel Plate Reader using an excitation wavelength of 680 nm and an emission wavelength of 520 nm.

[14] = molecular target: hTNF-alpha (human, UniProt P01375 77-233); test: competition ELISA on neutravidin captured biotinylated hOX40L
Sequence of hTNF-alpha (P01375 77-233 limits assumed): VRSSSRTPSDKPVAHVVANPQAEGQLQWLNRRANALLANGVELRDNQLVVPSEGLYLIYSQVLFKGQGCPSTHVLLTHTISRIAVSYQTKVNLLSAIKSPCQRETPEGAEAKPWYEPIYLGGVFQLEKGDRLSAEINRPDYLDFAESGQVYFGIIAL
Procedure: (§5) The binding of OX40L blocking Nanobodies to other TNF family members was tested in a competition ELISA.
(§6) Detection was done using sTMB (SDT Reagents, Baesweiler, Germany), the reaction was stopped with 1M HCl and absorbance was determined at 450 nm.

[15] = molecular target: T5, hCD40L (human, UniProt P29965 113-261); test: as above
T5 sequence (looked up): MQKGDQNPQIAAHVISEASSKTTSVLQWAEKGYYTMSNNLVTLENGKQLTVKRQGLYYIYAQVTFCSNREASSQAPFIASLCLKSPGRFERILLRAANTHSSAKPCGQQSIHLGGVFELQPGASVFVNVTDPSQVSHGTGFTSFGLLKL
Procedure: as §5, §6

[16] = molecular target: T6, hCD30L (human, UniProt P32971 63-234); test: as above
T6 sequence (looked up): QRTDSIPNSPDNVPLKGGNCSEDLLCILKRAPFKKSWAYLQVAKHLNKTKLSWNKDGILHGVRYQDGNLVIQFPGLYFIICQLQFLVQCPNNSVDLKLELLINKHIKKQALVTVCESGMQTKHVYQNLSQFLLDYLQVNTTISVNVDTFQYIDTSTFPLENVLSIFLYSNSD
Procedure: as §5, §6

[17] = molecular target: T7, human Receptor Activator for Nuclear Factor kappa B Ligand (human, UniProt O14788 143-317, limits assumed); test: as above
T7 construct: also called hRANKL; RANKL
T7 sequence (looked up): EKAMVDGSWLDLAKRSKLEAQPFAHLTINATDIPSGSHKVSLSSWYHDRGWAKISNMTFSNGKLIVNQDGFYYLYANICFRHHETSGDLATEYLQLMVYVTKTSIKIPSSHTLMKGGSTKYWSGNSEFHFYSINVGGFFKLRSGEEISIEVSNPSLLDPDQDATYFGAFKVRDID
Procedure: as §5, §6

[18] = molecular target: T8, human tumor necrosis factor-related apoptosis inducing ligand (human, UniProt P50591 114-281); test: as above
T8 construct: also called hTRAIL; TRAIL
T8 sequence (P50591 114-281 limits assumed): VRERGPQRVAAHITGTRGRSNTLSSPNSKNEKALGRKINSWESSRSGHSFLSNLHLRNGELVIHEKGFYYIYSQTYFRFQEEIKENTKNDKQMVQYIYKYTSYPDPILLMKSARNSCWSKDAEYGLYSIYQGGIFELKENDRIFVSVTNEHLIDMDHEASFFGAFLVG
Procedure: as §5, §6

[19] = molecular target: T4, biotinylated hOX40L (R&D Systems, …); test: AlphaScreen, 120 pM biotinylated hOX40L + 0.2 nM hOX40/Fc
Procedure: as §4

[20] = molecular target: T1, full length human OX40L expressed on …; test: competition FACS, 3.1 nM hOX40/Fc on hOX40L expressing cells

B1: OX40L18E09 (VHH)
VHH: EVQLVESGGGLVQAGGSLRLSCAASRNILSLNTMGWYRHAPGKPRELVARISSNSKTDYADSVKGRFTISRDNAKNTVLLQMNSLKPEDTGVYYCNLNVWRTSSDYWGQGTQVTVSS
notes: monovalent Nanobody from E. coli; not shown: C-terminal c-myc and His6 tag
IC50, IL4 production, T-cell activation assay, donor 1 [1]: 36 nM
IC50, IL4 production, T-cell activation assay, donor 2 [1]: 45 nM
IC50, IL4 production, T-cell activation assay, donor 3 [1]: 36 nM
IC50, IL4 production, T-cell activation assay, donor 4 [1]: 49 nM
IC50 [2]: 2 nM
Binding Level sample 2 (RU) [3]: 168 RU
Binding Level sample 2 - sample 1 (RU) [3]: -16 RU
EC50 [4]: 2.26 nM
EC50 [5]: 3.8 nM
Binding Level sample 2 (RU) [6]: 312 RU
Binding Level sample 2 - sample 1 (RU) [6]: -7 RU
Binding Level sample 2 (RU) [7]: 200 RU
Binding Level sample 2 - sample 1 (RU) [7]: 15 RU
Binding Level sample 2 (RU) [8]: 245 RU
Binding Level sample 2 - sample 1 (RU) [8]: 21 RU
Binding Level sample 2 (RU) [9]: 207 RU
Binding Level sample 2 - sample 1 (RU) [9]: 11 RU
Binding Level sample 2 (RU) [10]: 195 RU
Binding Level sample 2 - sample 1 (RU) [10]: 5 RU
Binding Level sample 2 (RU) [11]: 206 RU
Binding Level sample 2 - sample 1 (RU) [11]: 30 RU
Binding Level sample 2 (RU) [12]: 225 RU
Binding Level sample 2 - sample 1 (RU) [12]: -3 RU
IC50 [13]: 0.041 nM
binding result [14]: no binding (tested: starting from 100 fold molar excess)
binding result [15]: no binding (tested: starting from 100 fold molar excess)
binding result [16]: no binding (tested: starting from 100 fold molar excess)
binding result [17]: no binding (tested: starting from 100 fold molar excess)
binding result [18]: no binding (tested: starting from 100 fold molar excess)
IC50 [19]: 0.112 nM
IC50 [20]: 1.73 nM

B2: OX40L01E10 (VHH)
VHH: EVQLVESGGGLVQAGDSLRLSCAASGLTFSSFAMGWFRQAPGKEREFVAAISRSGYGTSEADSVRDRFIISRDNAKNTVTLHLSRLKPEDTAVYYCAAEHTLGRPSRSQINYLYWGQGTQVTVSS
notes: as for B1
IC50, IL4 production, T-cell activation assay, donor 1 [1]: 110 nM
IC50, IL4 production, T-cell activation assay, donor 2 [1]: 159 nM
IC50, IL4 production, T-cell activation assay, donor 3 [1]: 27 nM
IC50, IL4 production, T-cell activation assay, donor 4 [1]: 12 nM
IC50 [2]: 12 nM
Binding Level sample 2 (RU) [3]: 185 RU
Binding Level sample 2 - sample 1 (RU) [3]: -26 RU
EC50 [4]: 3.77 nM
EC50 [5]: 5.54 nM
Binding Level sample 2 (RU) [6]: 342 RU
Binding Level sample 2 - sample 1 (RU) [6]: -7 RU
Binding Level sample 2 (RU) [7]: 193 RU
Binding Level sample 2 - sample 1 (RU) [7]: 5 RU
Binding Level sample 2 (RU) [8]: 215 RU
Binding Level sample 2 - sample 1 (RU) [8]: 8 RU
Binding Level sample 2 (RU) [9]: 190 RU
Binding Level sample 2 - sample 1 (RU) [9]: 5 RU
Binding Level sample 2 (RU) [10]: 176 RU
Binding Level sample 2 - sample 1 (RU) [10]: -2 RU
Binding Level sample 2 (RU) [11]: 183 RU
Binding Level sample 2 - sample 1 (RU) [11]: 17 RU
Binding Level sample 2 (RU) [12]: 202 RU
Binding Level sample 2 - sample 1 (RU) [12]: -13 RU
IC50 [13]: 0.264 nM
binding result [14]: no binding (tested: starting from 100 fold molar excess)
binding result [15]: no binding (tested: starting from 100 fold molar excess)
binding result [16]: no binding (tested: starting from 100 fold molar excess)
binding result [17]: no binding (tested: starting from 100 fold molar excess)
binding result [18]: no binding (tested: starting from 100 fold molar excess)
IC50 [19]: 0.49 nM
IC50 [20]: 9.11 nM
